Test results as given in patent US20110262445A1 (CEPHALON AUSTRALIA, published 2011).
Positions count from the first letter of the chain named. In names and notes the source's numbering stands.

B1: scFv AQ-G10 (scFv)
scFv: QVQLVQSGAEVEKPGASVKVSCKASGYTFTDYYLHWVRQAPGQGLEWMGWIDPENGDTEYAPKFQGGVTMTTDTSTSTAYMELRSLRSDDTAVYYCNANKELRYFDVWGQGTMVTVSSGGGGSGGGGSGGGGSEIVMTQSPATLSVSPGERATLSCRASQSISINLHWYQQKPGQAPRLLIYFASQSISGIPARFSGSGSGTEFTLTISSLQSEDFAVYYCQQSNSFPLTFGGGTKVEIKR
notes: scFv-80 variant: VH K12E, R66G; not shown: proprietary C-terminal FLAG tag
B2: scFv CR-B1 (scFv)
scFv: B1 scFv with E12K, G67R, D89E
notes: scFv-80 variant: VH D85E; not shown: proprietary C-terminal FLAG tag
B3: scFv CE-B1 (scFv)
scFv: B1 scFv with E12K, F29L, G67R
notes: scFv-80 variant: VH F29L; not shown: proprietary C-terminal FLAG tag
B4: scFv AU-G9 (scFv)
scFv: B1 scFv with E12K, Q43R, G67R, I188T
notes: scFv-80 variant: VH Q43R; VL I55T; not shown: proprietary C-terminal FLAG tag
B5: scFv AX-G4 (scFv)
scFv: B1 scFv with E12K, G67R, S159P
notes: scFv-80 variant: VL S26P; not shown: proprietary C-terminal FLAG tag
B6: scFv BU-B1 (scFv)
scFv: B1 scFv with E12K, L34M, G67R
notes: scFv-80 variant: VH L34M; not shown: proprietary C-terminal FLAG tag
B7: scFv AV-F11 (scFv)
scFv: B1 scFv with E12K, G67R, S117P, I208T
notes: scFv-80 variant: VH S112P; VL I75T; not shown: proprietary C-terminal FLAG tag
B8: scFv BB-A9 (scFv)
scFv: B1 scFv with E12K, T28A, G67R, T69S
notes: scFv-80 variant: VH T28A, T68S; not shown: proprietary C-terminal FLAG tag
B9: Antibody 128 (antibody, human IgG1, kappa)
heavy chain: not shown
light chain: DIQMTQSPSSVSATVGDRVTITCRASQSISINLHWYQQKPGKAPKLLIYFASQSISGVPSRFSGSGSGTDFSLTINSLQPEDFATYYCQQSNSFPLTFGGGTKVEIKRTVAAPSVFIFPPSDEQLKSGTASVVCLLNNFYPREAKVQWKVDNALQSGNSQESVTEQDSKDSTYSLSSTLTLSKADYEKHKVYACEVTHQGLSSPVTKSFNRGEC

Assays:
human IL-23 [1] = molecular target: T1, human IL-23 (human, UniProt P29460 23-328; Q9NPF7 20-189); experiment: SPR, purified scFv captured via FLAG
T1 construct: Recombinant (Ebioscience); HIS-tagged in flow cytometry, biotinylated in some assays; also called hIL-23; rhIL-23
T1 sequence 1: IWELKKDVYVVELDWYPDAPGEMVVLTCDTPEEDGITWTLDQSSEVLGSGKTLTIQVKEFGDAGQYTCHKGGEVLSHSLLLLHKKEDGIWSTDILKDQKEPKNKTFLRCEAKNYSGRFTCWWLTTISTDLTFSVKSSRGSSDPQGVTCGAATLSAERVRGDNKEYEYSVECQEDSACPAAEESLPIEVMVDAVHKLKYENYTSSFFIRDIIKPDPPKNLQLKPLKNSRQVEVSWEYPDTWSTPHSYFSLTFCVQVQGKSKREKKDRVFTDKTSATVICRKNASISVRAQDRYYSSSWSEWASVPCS
T1 sequence 2: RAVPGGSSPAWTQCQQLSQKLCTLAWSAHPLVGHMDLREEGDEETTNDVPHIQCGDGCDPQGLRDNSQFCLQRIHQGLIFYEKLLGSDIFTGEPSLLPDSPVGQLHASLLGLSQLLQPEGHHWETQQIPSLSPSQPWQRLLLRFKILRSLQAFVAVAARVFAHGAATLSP
Experimental: (§1) A number of the scFv variants presented in TABLE 4 were selected for full characterization of binding kinetics, encompassing a broad range of mutation profiles and binding affinities. Large-scale protein expressions were carried out for each scFv. The expressed scFvs were purified as monomeric proteins and tested for binding against IL-12 and IL-23 by SPR (TABLE 5).
(§2) Purified scFvs were subjected to full kinetic characterization using a BIAcore T100 biosensor (GE Healthcare). Approximately 10,000 RU of the proprietry FLAG-specific capture molecule was immobilized on a CM5 Series S Sensor chip, using standard amine coupling chemistry in flow cells (FC) 1 and FC2 (or alternatively FC3 and FC4) of the BIAcore T100 Biosensor. The running buffer used was HBS-EP+ (BIAcore) and interactions measured at 30° C. or 35° C. to promote differentiation of scFvs with very similiar kd values. Peak purified FLAG-tagged scFvs (prepared as described in the previous paragraph) were diluted to 10 nM in running buffer, and captured on FC2 at a flow rate of 10 μl/min in order to capture 50 RU of scFv (typically 60 sec was sufficient to capture this level of tagged scFv). After an appropriate stabilization period, the target, IL-12 or IL-23, were passed over FC1 and FC2 at a flow rate of 60 μl/min at concentrations ranging from 81 nM to 0.13 nM (using a five-fold dilution of IL-12) and 81 nM to 1 nM (using a three-fold dilution of IL-23). The contact time for association was 180 sec and dissociation measured for 10 mins for the highest concentration and 300 sec for all other concentrations in the series. The sensorgram data from FC2 was subtracted from FC1 and a buffer only control. The curves were fitted using a 1:1 Langmuir equation to generate the kₐ, kd and KD values.

human IL-12 [2] = molecular target: T2, human IL-12 (human, UniProt P29460 23-328; P29459 23-219); experiment: SPR, purified scFv captured via FLAG
T2 construct: Recombinant (Peprotech); FLAG-tagged IL-12 in the flow cytometry assays, biotinylated in the IL-12Rβ2 assay; also called hIL-12
T2 sequence 1: T1 sequence 1
T2 sequence 2: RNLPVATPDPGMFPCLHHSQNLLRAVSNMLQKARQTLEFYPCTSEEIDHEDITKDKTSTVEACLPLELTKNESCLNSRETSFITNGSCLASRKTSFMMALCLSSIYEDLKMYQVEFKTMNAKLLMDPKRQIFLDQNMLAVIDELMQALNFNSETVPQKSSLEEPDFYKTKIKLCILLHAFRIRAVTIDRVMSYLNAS
Experimental: as §1, §2

human IL-23 [3] = molecular target: T1, human IL-23; experiment: SPR screen, crude scFv captured via FLAG
Experimental: Approximately 6500 individual scFvs recovered from the ribosome display reactions were expressed and screened for binding against IL-23 using a high-throughout SPR assay. The variants were ranked according to the kd and the best variants were sequenced at the nucleic acid level.
High-throughput SPR screening was conducted using a BIAcore A100 biosensor (GE Healthcare). Approximately 10 000 RU of the proprietary FLAG-specific capture molecule was immobilized on a CM5 Series S Sensor chip, using standard amine coupling chemistry on Spots 1 & 5 (outer spots) and 3,000RU to Spots 2 & 4 (inner spots) in each of the four flow cells of the BIAcore A100 Biosensor. The running buffer used was HBS-EP+ (BIAcore) and all interactions measured at 25° C. Crude periplasmic preparations of FLAG-tagged scFvs (prepared as described in the previous paragraph), were diluted two-fold in running buffer before capturing at a flow rate of 5u1/min for 60 sec. Approx. 100RU (on outer spots) and 50RU (on inner spots) of tagged scFv was captured. Following a 2 min stabilization period, IL-23 was passed over all spots of all four flow cells simultaneously at a flow rate of 30u1/min for 120 sec and dissociation monitored for 200 sec. Generated sensorgrams were referenced against the unmodified spot 3 of each flow cell, and fitted using a 1:1 Langmuir equation with R1 set to local to account for varying ligand densities to generate the kₐ, kd and KD values.

human IL-12 [4] = molecular target: T2, human IL-12; experiment: ELISA, coated IL-12
Summary of the method: (§3)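 Cytokine at 1 μg/mL in carbonate buffer pH 9.6 was coated overnight at 4° C onto Maxisorp plates and blocked with 1% BSA in PBS for 1 hour at 25° C. Antibody titrations were bound for 1 hour at 25° C, then detected with goat anti-human IgG or anti-murine immunoglobulin HRP (1:2000, 1 hour). TMB was developed and stopped with 1M HCl. The binding result is absorbance at 450 nm (reference 620 nm).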

human IL-23 [5] = molecular target: T1, human IL-23; experiment: ELISA, coated IL-23
Summary of the method: as §3

Row | Binder | Kd (human IL-23 [1]) | koff (human IL-23 [1]) | kon (human IL-23 [1]) | Kd (human IL-12 [2]) | koff (human IL-12 [2]) | kon (human IL-12 [2]) | koff (human IL-23 [3]) | binding result (human IL-12 [4]) | binding result (human IL-23 [5])
1 | B1 | 170 pM | 4.9e-05 s⁻¹ | 280000 M⁻¹ s⁻¹ | 350 pM | 0.00052 s⁻¹ | 1.5e+06 M⁻¹ s⁻¹ | 0.00029 s⁻¹ | – | –
2 | B2 | 130 pM | 4.1e-05 s⁻¹ | 320000 M⁻¹ s⁻¹ | 230 pM | 0.00044 s⁻¹ | 1.9e+06 M⁻¹ s⁻¹ | 0.00026 s⁻¹ | – | –
3 | B3 | 98 pM | 3e-05 s⁻¹ | 310000 M⁻¹ s⁻¹ | 89 pM | 0.00018 s⁻¹ | 2e+06 M⁻¹ s⁻¹ | 0.00028 s⁻¹ | – | –
4 | B4 | 130 pM | 4.4e-05 s⁻¹ | 340000 M⁻¹ s⁻¹ | 110 pM | 0.00024 s⁻¹ | 2.1e+06 M⁻¹ s⁻¹ | 0.00031 s⁻¹ | – | –
5 | B5 | 150 pM | 5.5e-05 s⁻¹ | 360000 M⁻¹ s⁻¹ | 140 pM | 0.00031 s⁻¹ | 2.3e+06 M⁻¹ s⁻¹ | 0.00036 s⁻¹ | – | –
6 | B6 | 120 pM | 3.7e-05 s⁻¹ | 300000 M⁻¹ s⁻¹ | 120 pM | 0.00024 s⁻¹ | 2e+06 M⁻¹ s⁻¹ | 0.00029 s⁻¹ | – | –
7 | B7 | 93 pM | 2.5e-05 s⁻¹ | 270000 M⁻¹ s⁻¹ | 200 pM | 0.00033 s⁻¹ | 1.6e+06 M⁻¹ s⁻¹ | 0.00028 s⁻¹ | – | –
8 | B8 | 160 pM | 4.4e-05 s⁻¹ | 310000 M⁻¹ s⁻¹ | 120 pM | 0.00023 s⁻¹ | 2e+06 M⁻¹ s⁻¹ | 0.00045 s⁻¹ | – | –
9 | B9 | – | – | – | – | – | – | – | binds | binds
